In paper doi:10.1101/2024.07.03.601496:

What was measured:
[1] = target: Hth (for EMSA) (Drosophila) (UniProt O46339); assay: native gel or EMSA
[2] = target: Exd (for EMSA) (Drosophila) (UniProt P40427); assay: native gel or EMSA
Chain of UniProt P40427 (P40427 whole entry): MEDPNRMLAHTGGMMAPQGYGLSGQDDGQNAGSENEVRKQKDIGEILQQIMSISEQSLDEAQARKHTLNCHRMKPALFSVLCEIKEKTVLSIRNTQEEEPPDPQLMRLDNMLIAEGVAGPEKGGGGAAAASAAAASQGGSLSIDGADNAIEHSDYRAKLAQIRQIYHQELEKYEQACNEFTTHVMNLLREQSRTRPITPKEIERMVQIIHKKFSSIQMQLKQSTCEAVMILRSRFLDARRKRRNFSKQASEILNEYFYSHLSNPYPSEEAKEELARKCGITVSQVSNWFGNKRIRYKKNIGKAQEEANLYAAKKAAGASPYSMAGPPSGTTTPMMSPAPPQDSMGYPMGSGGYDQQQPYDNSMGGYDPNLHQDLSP

Chain of UniProt O46339 (O46339 whole entry): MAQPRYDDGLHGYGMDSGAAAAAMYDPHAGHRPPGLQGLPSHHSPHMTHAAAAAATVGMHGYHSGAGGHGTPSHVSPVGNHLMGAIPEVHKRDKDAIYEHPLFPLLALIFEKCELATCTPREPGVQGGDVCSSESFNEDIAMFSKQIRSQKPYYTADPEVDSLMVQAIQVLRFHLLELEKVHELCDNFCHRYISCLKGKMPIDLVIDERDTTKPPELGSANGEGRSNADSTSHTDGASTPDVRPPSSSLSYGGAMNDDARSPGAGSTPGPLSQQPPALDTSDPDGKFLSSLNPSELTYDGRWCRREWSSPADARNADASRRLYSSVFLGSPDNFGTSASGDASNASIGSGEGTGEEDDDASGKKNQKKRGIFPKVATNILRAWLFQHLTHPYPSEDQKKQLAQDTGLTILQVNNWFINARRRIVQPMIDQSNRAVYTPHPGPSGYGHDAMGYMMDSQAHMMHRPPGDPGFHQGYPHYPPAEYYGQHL

Row | percent reduction of the trimeric complex against wild type Abd-B [1] [%] | percent reduction of the trimeric complex against wild type Abd-B [2] [%] | Substance
1 | 25 | 25 | Abd-B^QR (QR>AA, for EMSA) (from UniProt P09087 1-493) (natural protein)
2 | 56 | 56 | Abd-B^W (W>A, for EMSA) (from UniProt P09087 1-493) (natural protein)
